Source: the supplement of paper PMC12042874
± gives the uncertainty stated by the source.

Assay: amyloid nucleation score (Sup35N fusion, yeast selection) (log enrichment); library NNK1; higher = more nucleation; inactive = no reads after selection
Method in brief: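 Using DiMSum, nucleation scores were taken as the log enrichment of output over input reads, centred on the mode score of non-aggregating sequences. The input and output reads came from Illumina sequencing of plasmid inserts, with sequences under 100 input reads excluded. The yeast were psi-negative, expressed Sup35N fused to peptides of 20 random codons, were induced with 100 μM copper sulfate for 24 hours, and were grown 7 days at 30°C on medium lacking adenine and uracil.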

Substance	amyloid nucleation score
NYMSMWTV	0.324 ± 0.9
PACFSGCEVGFASDMCVLEL	0.947 ± 0.42
PAPLQIRNMSSNAKTR	inactive
PAVAGEWNARMGWEATRYKA	0.669 ± 0.56
PAYGTNIVAIYLWH	3.59 ± 0.093
PCAETLVRHIHAYLKWI	0.065 ± 1.2
PCMFYWTVLGRLRTKPPSGV	-0.153 ± 0.44
PCSKAFRAVNISEAKIDFGN	-0.416 ± 0.5
PCTFWAEVRINRWSYYARQR	-0.856 ± 2.4
PCWTNSLLKPPVGIR	-0.281 ± 1.1
PDWCLMVLLCGLVCIYVDLN	0.22 ± 1.1
PEGWYLTNCRAGRFSSR	-0.222 ± 0.39
PELYSVDHFNGYAPNYCRCR	-0.534 ± 0.43
PERVVYANATAYRLLVKDAL	0.247 ± 0.33
PFGVVGDVFQSTLC	0.371 ± 0.84
PFILFQWPTLHRDYVHAQVL	0.686 ± 1.1
PFQRGIYHWLYILGLVVELP	inactive
PFRGDGIGYISVGGWFVQDN	-1.51 ± 2.4
PFSAWYNNNTLTYSIDCINF	0.58 ± 0.19
PFSYLMDLTIYVGKSLQSNE	0.119 ± 0.35
PFVQRFCL	0.486 ± 0.49
PFVRVLTLGYAGVWNGRGKP	0.904 ± 0.57
PFVYLVYCGNGNVFAAKYLS	6.217 ± 0.059
PFWAGG	inactive
PGCIICRVMTEANSRCLVRA	0.141 ± 1.2

Substance	amyloid nucleation score
PGFYGPLIGFMWRCSARERC	0.673 ± 0.37
PGKICSNDQVNVSAY	-0.179 ± 0.49
PGKRHGFMLRDFAMPKLSYH	-0.918 ± 0.59
PGRFLGLNSMTALVWY	0.095 ± 0.37
PGRTLIVFFCVVVCQCEDNR	1.44 ± 0.5
PGVECACRVSNATNVDGLDL	-0.168 ± 0.5
PHVTGGSPCSKHSLRW	-0.716 ± 0.65
PICANWLMHTVMINSSSGRG	0.27 ± 0.32
PICCLLQLLGDSGWMCCSAW	6.538 ± 0.061
PIEHDEWLTVMVYCDGRLLA	-0.894 ± 2.4
PIHPRTLMG	0.117 ± 0.59
PIKHCRRRNTDRRKTGMSQV	-0.447 ± 0.62
PIYGFLWELRR	0.486 ± 0.51
PLARRVSAHILVRMNYRNFM	-0.048 ± 0.37
PLELPVVFIMSDFSFWRRAQ	0.555 ± 0.53
PLEMGSHIGRL	-1.54 ± 2.7
PLFCNNWSVLEFERRLGDMH	1.03 ± 0.24
PLFLVVTQMS	5.25 ± 0.073
PLHCSVGRIRSGLMCLKLTC	-0.17 ± 1.1
PLLFKGYNAHRPNLVLTTML	-0.143 ± 1.7
PLSWTNMKYKGSCVYFMVFF	-2.14 ± 2.4
PLVKGIHSNPRTYTTMYYSY	-1.93 ± 2.7
PLYSYADEVVDGKGSCERNC	0.946 ± 0.5
PMRACHCCFGCTKSLAHDSN	0.912 ± 0.53
PMSKV	inactive

Substance	amyloid nucleation score
PNAVNIIYDCAQLLFMRTMR	-0.188 ± 0.65
PNFMMIWWVSTLRHNFTGLC	2.19 ± 0.31
PNSYASVHSNHKDIREAMYL	0.021 ± 0.44
PPQLHRVEFLIVSGR	-0.859 ± 1.4
PQGLTSSSMGLTSANHSAA	0.637 ± 0.88
PQVKTFGVVFVGGMCE	0.216 ± 0.41
PREDRGLSWISGYYYYLVAG	-0.341 ± 0.47
PRSMRKNSYGLGSGVRDHVQ	-0.238 ± 0.56
PRVIELARLVRLRKTKVYML	-0.013 ± 0.24
PRVQRPPKVRTAELTTGPSQ	-0.423 ± 0.37
PRVSRRPWLKGFNNVSNQQI	0.193 ± 1.5
PSGTQCTAE	-0.047 ± 0.65
PSKPLGIIRLVSNQFPPSHK	0.123 ± 0.29
PSRWRYYGSYGDLILICSGS	-0.907 ± 0.79
PSSHWIAPNFVVN	inactive
PSTRRVGDWDFLTSSTGRTM	-0.403 ± 0.35
PTFFHNCVDTFRSS	-0.026 ± 0.47
PTLLALYGG	-0.414 ± 0.61
PVCFAFQFRATPNMQVHQPS	-0.108 ± 0.75
PVDNLFNFLSGSCAISNFQK	0.638 ± 0.58
PVDVGYIRIPP	0.093 ± 0.87
PVHVLYFTWMNQECCGHNYL	6.5 ± 0.07
PVLPDDLNARREYSGCIKYL	0.765 ± 0.55
PVLRTSWTCWA	-0.254 ± 0.6
PWCFTLFALAPP	-0.077 ± 1.7

Substance	amyloid nucleation score
PWCQVRHSSYRASWSSVVVN	-0.254 ± 0.48
PWDYVSLSI	-0.424 ± 0.73
PWFIYDSLGFNSRCRSHLIK	-0.069 ± 0.88
PWNLLGKIVTFV	1.09 ± 0.94
PWPVSFYFMVNIVWCGRVIL	1.06 ± 0.26
PYPYAISRYVFMVSNSDMFM	4.53 ± 0.054
PYVGHVGVKRDSNCK	0.206 ± 1.1
QANVDCNVHPVTRML	0.085 ± 0.46
QCDRILSDLYNCSGYNRNTK	-0.522 ± 0.74
QCRERLYPHPGLI	1.01 ± 0.37
QCRITDSFCSGA	-0.163 ± 0.45
QCRQAQLVLFGVSVWTGYVK	-0.083 ± 0.38
QDFNNEFFFSCRAAAKTTNA	-1.54 ± 1.7
QDIARPRYIPSNNRKKTREP	-1.35 ± 1.9
QDQSGPVLASCIWYLCSETN	7.403 ± 0.052
QEGRSFRGYTMVKYVFISRY	1.38 ± 0.5
QEINGKAQWSPIHSISTMAA	0.33 ± 0.51
QEPCGW	-0.172 ± 0.29
QESVGSNRRVVGDNASLRLL	-0.211 ± 0.86
QFKFINVDEAHT	0.297 ± 1.2
QFRGLDLCLRIRRLVAYTGI	0.285 ± 0.64
QGLSYFDCSDWLNYLFFKSY	0.126 ± 0.27
QGMQICHQKHGAWSGYNGRE	-0.379 ± 0.29
QGRTRSYY	-0.301 ± 0.82
QGSIHY	inactive

Substance	amyloid nucleation score
QIFVWAFPPSGVSGHVWSRD	6.497 ± 0.049
QIKVTGRRSSDEGSQGGWLL	3.82 ± 0.081
QLAAWSGFN	0.522 ± 0.28
QLELWVSLRCISWLQILRIL	1.06 ± 0.53
QLGQAICRSLYNVRSYMQGF	inactive
QLKGSSWYYENRVGRSGRGV	0.698 ± 0.49
QLLPISGKVWAVISSGLG	-0.029 ± 0.32
QLNFYIR	8.212 ± 0.061
QLRAYEFGWETREELNSRPY	-1.64 ± 2.4
QLRGWQYSKATREVDSREDR	0.646 ± 0.79
QLSLGHNFLCYVMSMRVREV	inactive
QLVTVADLLTKFPGILSWSG	inactive
QMREFCLNACSINPRFLWAS	1.51 ± 0.31
QMSKPARTLKSVRGPLDLRI	-0.389 ± 0.61
QNKVCNCDRVFTRFIESNSL	-0.254 ± 0.38
QNQSFLINPWQGSKLVDPTA	0.253 ± 0.53
QNVACSMH	0.093 ± 0.57
QPLLTQQK	0.086 ± 0.28
QPNNGVPQIMDTV	0.184 ± 0.43
QPSGLGAECYM	0.423 ± 1.4
QQSQC	inactive
QRMFFYNIIVWNVN	2.79 ± 0.14
QSLFFPFARFVTNILRYYKF	-0.531 ± 0.45
QSPISDCSGQSSCRMCQRYG	0.408 ± 0.2
QSSYVLCHFILE	-0.219 ± 1.2

Substance	amyloid nucleation score
QSVCSTCSRGPSHCAAGSV	0.17 ± 0.31
QSYTLYMMSLFKS	-0.34 ± 0.55
QTRWWEYHHNLFVLQITFGG	1.04 ± 0.27
QVARLLSHAMWLVGKTL	inactive
QVNRSVDFPSRFIKSY	-0.687 ± 1.4
QVNVN	0.19 ± 0.5
QVRRRVGILRLWFEKWVIGR	0.372 ± 0.77
QVSCSGFYRRDLSSRL	0.614 ± 0.56
QWQIDMIPRCLGDMNLIVLQ	inactive
QYFPF	-1.26 ± 1.2
QYLLFGYNYNAWERRDLALW	0.354 ± 0.22
QYNTLCFGMSTGYLYLNISS	2.83 ± 0.19
QYRHRGRQHLMGGNAQCPYV	0.477 ± 0.66
RACYTCVPVSGSRMSVRNLW	3.19 ± 0.13
RAKLFHWLNWR	0.282 ± 0.67
RALCLWTCKSYMFRN	-0.13 ± 1.1
RALLMTMKFNKMGSFNIESN	1.77 ± 0.2
RARCFHSSLVVRLLRQTAER	0.192 ± 1
RAVVW	0.695 ± 0.8
RCCSFRLYLFTEG	4.78 ± 0.068
RCDNAQLHIFVHLFRSVSDM	inactive
RCGRSVVDGLRCFRLRMAFG	-1.06 ± 1.2
RCHESARKVTSGMCCSGWC	4.12 ± 0.088
RCHTLFIVSLYRRVRNHMSC	0.558 ± 0.79
RCLSQNYCLSLASRLEHMCI	0.572 ± 1.1

Substance	amyloid nucleation score
RCRPKVWACS	-0.102 ± 1
RDAVFGPAGVLQI	-0.122 ± 1.6
RDCFIRGKWCTCWHWCEGGE	1.34 ± 0.27
RDFRYCFRCVIINMHRDHFQ	3.99 ± 0.06
RDFYCFWLG	4.05 ± 0.08
RDIILGVLDRCSHCKNRALI	0.223 ± 0.62
RDRCT	0.49 ± 0.36
RDSLESTVGVKMGNASGVCR	-0.818 ± 1.6
REDPIALGSRWTRPISKTLG	0.734 ± 0.97
REEKV	0.068 ± 0.42
RESDFYTLDLRQVMISAEPL	0.158 ± 0.36
RFANMLNVFENV	-0.179 ± 0.26
RFAVCTNFANIFRLQEDQIR	0.481 ± 0.33
RFETRTL	0.93 ± 0.31
RFFGKYSTEGLNL	0.992 ± 0.76
RFGTY	-0.067 ± 0.94
RFLSSALRARRYSRPVPLVM	1.13 ± 0.76
RFLVFPRFCCTRNKPRSETL	0.616 ± 1.2
RFNNDMTSLLSGRIAMEYSY	-0.344 ± 0.62
RFQTGPTLCSPQTEWPVLLN	0.987 ± 0.56
RFRVCCNRSKRGGYGPNVER	-0.363 ± 0.67
